Test results taken from doi:10.1101/2024.11.23.624964 (bioRxiv, 2024).

Molecular target: the molecule itself
Test: thioflavin-T fluorescence

B1: TDP-43-low complexity domain (LCD) (aa: 274-414) (domain or fragment, UniProt Q13148 274-414, looked up)
chain: GRFGGNPGGFGNQGGFGNSRGGGAGLGNNQGSNMGGGMNFGAFSINPAMMAAAQAALQSSWGMMGMLASQQNQSGPSGNNQNQGNMQREPNQAFGSGNNSYSGSNSGAAIGWGSASNAGSGSGFNGGFGSSMDSKSSGWGM
Q: Does B1 bind?
A: Result: binds
